Legend:
[1] = target: recombinant interleukin-15Rα-sushi-Fc fusion protein (human)
[2] = target: recombinant interleukin-15Rα-sushi-Fc fusion protein (human); test: pull-down; rILR-Fc/PhA NPs incubated with rIL-15 at 37 °C for 30 min in PBS; nanoparticles adsorbed on a Protein A agarose column; free rIL-15 quantified by sandwich ELISA
[3] = target: commercial whole IL-15Rα fusion protein (rIL-15Rα-Fc) (UniProt Q13261); test: not stated; affinity shown in Figure S3A,B; method not told in the main text
Sequence of commercial whole IL-15Rα fusion protein (rIL-15Rα-Fc) (Q13261 31-205): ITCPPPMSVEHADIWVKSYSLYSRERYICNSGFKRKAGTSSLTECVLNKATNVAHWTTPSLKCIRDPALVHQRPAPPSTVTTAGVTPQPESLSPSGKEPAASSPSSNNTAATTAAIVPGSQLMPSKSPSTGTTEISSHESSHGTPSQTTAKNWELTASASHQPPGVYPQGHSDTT

[4] = target: recombinant interleukin-15Rα-sushi-Fc fusion protein (human); test: as above
[5] = target: commercial whole IL-15Rα fusion protein (rIL-15Rα-Fc) (UniProt Q13261)
[6] = target: recombinant interleukin-15Rα-sushi-Fc fusion protein (human); remark: listed apart in the source

Sequence of recombinant wild-type IL-15 (P40933 49-162): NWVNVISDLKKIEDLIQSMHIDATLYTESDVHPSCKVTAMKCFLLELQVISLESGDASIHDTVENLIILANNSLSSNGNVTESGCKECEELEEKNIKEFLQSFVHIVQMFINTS

recombinant IL-15 (N72D-mutated human IL-15) (ligand)
serum elimination half-life (t1/2) of rIL-15 in mice after i.v. injection of rILR-Fc/PhA/rIL-15 NPs (free rIL-15: 20.24 min) [1]: 39.4 min
encapsulation efficiency (percent of rIL-15 held by the rILR-Fc/PhA/rIL-15 NPs) [2]: 99.5%
molar ratio of rIL-15 to rILR-Fc in the nanoparticles [2]: 0.81
affinity [3]: 0.115 nM
affinity [4]: 0.24 nM

recombinant wild-type IL-15 (from UniProt P40933 49-162) (ligand)
EC50 of M-07e cell proliferation, rIL-15-wt pre-associated with rIL-15Rα-Fc (rIL-15-wt alone: 3.26 nM) [5]: 1.65 nM
EC50 of M-07e cell proliferation, rIL-15-wt pre-associated with rILR-Fc (rIL-15-wt alone: 3.26 nM) [6]: 1.62 nM
